B1: rhesus macaque anti-SIV mac251 gp120 IgG-201 immunoadhesin (201IA) (Fc fusion)
chain: EVQLLESGPGLVKPSETLSLTCAVSGLSISSDFSWAWIRQTPGKALEYVGYIRGNTGDTYYNPSLKSRLTISKDTSKNQIYLNLSSVTAGDAAVYYCARDRVCDDDYGYYYTEVCFGLDSWGQGIVVTVSSGGGGSGGGGSGGGGSAELVMTQSPLSLSVAPGQTASISCRSSQSLDYANGNTYLSWFHQRPGQPPRRLIYQISNRDSGVPDRFSGSGAGTEFTLRISRMESDDVGIYYCGQGTTFPRTFGQGTKVEIKTCGGGSKPPTCPPCTSPELLGGPSVFLFPPKPKDTLMISRTPEVTCVVVDVSQEDPDVKFNWYVNGAEVHHAQTKPRETQYNSTYRVVSVLTVTHQDWLNGKEYTCKVSNKALPAPIQKTISKDKGQPREPQVYTLPPSREELTKNQVSLTCLVKGFYPSDIVVEWESSGQPENTYKTTPPVLDSDGSYFLYSKLTVDKSRWQQGNVFSCSVMHEALHNHYTQKSLSLSPGK
notes: also called 201 anti-SIV immunoadhesin; 201IA standard protein produced in-house
B2: 201IA(I253A) (Fc fusion)
chain: EVQLLESGPGLVKPSETLSLTCAVSGLSISSDFSWAWIRQTPGKALEYVGYIRGNTGDTYYNPSLKSRLTISKDTSKNQIYLNLSSVTAGDAAVYYCARDRVCDDDYGYYYTEVCFGLDSWGQGIVVTVSSGGGGSGGGGSGGGGSAELVMTQSPLSLSVAPGQTASISCRSSQSLDYANGNTYLSWFHQRPGQPPRRLIYQISNRDSGVPDRFSGSGAGTEFTLRISRMESDDVGIYYCGQGTTFPRTFGQGTKVEIKTCGGGSKPPTCPPCTSPELLGGPSVFLFPPKPKDTLMASRTPEVTCVVVDVSQEDPDVKFNWYVNGAEVHHAQTKPRETQYNSTYRVVSVLTVTHQDWLNGKEYTCKVSNKALPAPIQKTISKDKGQPREPQVYTLPPSREELTKNQVSLTCLVKGFYPSDIVVEWESSGQPENTYKTTPPVLDSDGSYFLYSKLTVDKSRWQQGNVFSCSVMHEALHNHYTQKSLSLSPGK
notes: No leader limits are stated; Expressed in HEK293 cells and purified on Protein A; also called I253A 201IA mutant

Biological target: T1, mac251 gp120 (Immune Technology Corp.) (SIV mac251, UniProt P08810 20-527)
T1 construct: Coated on ELISA plates at 2 ug/mL; also called SIV mac251 gp120
T1 sequence: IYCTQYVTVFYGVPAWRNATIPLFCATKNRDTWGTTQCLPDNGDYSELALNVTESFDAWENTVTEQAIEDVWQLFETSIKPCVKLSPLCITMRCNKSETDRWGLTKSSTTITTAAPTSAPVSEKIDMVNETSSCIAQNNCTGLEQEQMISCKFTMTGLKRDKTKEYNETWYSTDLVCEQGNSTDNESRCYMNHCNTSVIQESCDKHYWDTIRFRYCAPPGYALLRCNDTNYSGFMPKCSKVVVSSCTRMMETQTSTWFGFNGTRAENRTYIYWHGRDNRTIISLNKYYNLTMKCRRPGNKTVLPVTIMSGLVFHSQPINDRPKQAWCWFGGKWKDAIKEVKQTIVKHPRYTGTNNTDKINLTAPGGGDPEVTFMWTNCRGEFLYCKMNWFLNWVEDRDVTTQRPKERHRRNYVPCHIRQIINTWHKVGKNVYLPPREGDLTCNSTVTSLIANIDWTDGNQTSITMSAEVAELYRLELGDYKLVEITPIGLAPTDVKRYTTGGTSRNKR
Assay: ELISA, mac251 gp120 coated at 2 ug/mL, immunoadhesin at 50 ng/mL, detected with anti-human IgG-biotin and streptavidin-HRP

Binder | binding result
B1 | binds
B2 | binds
